The target of the test is T1, SH2 domain of Monosiga brevicollis crka1 (Monosiga brevicollis, UniProt A0A1C9VNP8 1-97).
T1 construct: seven additional amino acids left at the N-terminus after His-tag removal; For the NMR structure the same domain was made with the E. coli cell-free protein synthesis system; also called Mb-crka1 SH2; crka1 SH2 domain
T1 sequence: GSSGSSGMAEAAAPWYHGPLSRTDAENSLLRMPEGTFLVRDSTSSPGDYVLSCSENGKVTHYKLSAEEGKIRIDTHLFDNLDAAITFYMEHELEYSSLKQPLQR
Briefly: ITC; peptide (400 uM) injected into the cell holding the SH2 domain (40 uM); 25 °C; 25 mM HEPES, pH7, 100 mM NaCl; MicroCal Auto-iTC200. Particulars: both partners purified.

From publication PMC5043372, “A pre-metazoan origin of the CRK gene family and co-opted signaling network” (Scientific Reports, 2016) come the findings set out here.

Non-standard residues stand in square brackets, D forms with d. No end group written: not given here. pY = N[C@@H](Cc1ccc(OP(=O)(O)O)cc1)C(=O)O

B1: phosphopeptide DM-pYDVP-RN of S. rosetta PTSG_05573 (peptide)
peptide: DM[pY]DVPRN
notes: together with EM-pYDVP-RS it overlaps 5 of the 10 YxxP motifs; source: synthetic peptide, bought: Toray Research Center
B1: the binding result is listed as “binds”.

B2: phosphopeptide EM-pYDVP-RS of S. rosetta PTSG_05573 (peptide)
peptide: EM[pY]DVPRS
notes: together with DM-pYDVP-RN it overlaps 5 of the 10 YxxP motifs; source: synthetic peptide, bought: Toray Research Center
For the molecule B2, the binding result was “binds”.
